Assay results reported in patent US20210347852A1 (Regeneron, published 2021).

B1: Human VEGF121 (R&D SYSTEMS Cat #4644-VS) (ligand, UniProt P15692-9 27-147, looked up)
chain: APMAEGGGQNHHEVVKFMDVYQRSYCHPIETLVDIFQEYPDEIEYIFKPSCVPLMRCGGCCNDEGLECVPTEESNITMQIMRIKPHQGQHIGEMSFLQHNKCECRPKKDRARQEKCDKPRR
B2: REGN7483, VEGF mini-trap hIgG1 Fc (other)
chain: SDTGRPFVEMYSEIPEIIHMTEGRELVIPCRVTSPNITVTLKKFPLDTLIPDGKRIIWDSRKGFIISNATYKEIGLLTCEATVNGHLYKTNYLTHRQTNTIIDVVLSPSHGIELSVGEKLVLNCTARTELNVGIDFNWEYPSSKHQHKKLVNRDLKTQSGSEMKKFLSTLTIDGVTRSDQGLYTCAASSGLMTKKNSTFVRVHEKDKTHTCPPCPAPELLG
notes: Enzymatically cleaved from aflibercept; also called REGN7483F; VEGF mini-trap derived from REGN3
B3: REGN10102, VEGF trap hIgG2 Fc w/2Cys (Fc fusion)
chain: SDTGRPFVEMYSEIPEIIHMTEGRELVIPCRVTSPNITVTLKKFPLDTLIPDGKRIIWDSRKGFIISNATYKEIGLLTCEATVNGHLYKTNYLTHRQTNTIIDVVLSPSHGIELSVGEKLVLNCTARTELNVGIDFNWEYPSSKHQHKKLVNRDLKTQSGSEMKKFLSTLTIDGVTRSDQGLYTCAASSGLMTKKNSTFVRVHEKVECPPCPAPPVAGPSVFLFPPKPKDTLMISRTPEVTCVVVDVSHEDPEVQFNWYVDGVEVHNAKTKPREEQFNSTFRVVSVLTVVHQDWLNGKEYKCKVSNKGLPAPIEKTISKTKGQPREPQVYTLPPSREEMTKNQVSLTCLVKGFYPSDIAVEWESNGQPENNYKTTPPMLDSDGSFFLYSKLTVDKSRWQQGNVFSCSVMHEALHNHYTQKSLSLSPGK

Experiments:
[1] = target: T1, VEGFR1 chimeric receptors Flt1(1-7)-IL18Rα / Flt1(1-7)-IL18Rβ on HEK293/D9 reporter cells (UniProt P17948 27-758; Q13478 351-541; P17948 27-758; O95256 378-599, limits assumed); test: cell-based or functional assay
[2] = target: T1, VEGFR1 chimeric receptors …; test: cell-based or functional assay; remark: listed apart in the source
Human VEGF165 (REGN110) [3] = target: T2, Human VEGF165 (REGN110) (human, UniProt P15692-4 27-191); test: cell-based or functional assay
[4] = target: B1; test: cell-based or functional assay
[5] = target: B1; test: cell-based or functional assay; remark: listed apart in the source
Human VEGF165 (REGN110) [6] = target: T2, Human VEGF165 (REGN110); test: SPR (Biacore 3000), 25C, trap captured by REGN18, hVEGF165 injected
Method: Equilibrium dissociation constants (KD values) for human VEGF₁₆₅ binding to various purified VEGF mini-trap constructs were determined using a real-time surface plasmon resonance biosensor using a Biacore 3000 instrument. All binding studies were performed in 10 mM HEPES, 150 mM NaCl, 3 mM EDTA, and 0.05% v/v Surfactant Tween-20; pH 7.4 (HBS-ET) running buffer at 25° C. The Biacore sensor surface was first derivatized by amine coupling with a monoclonal mouse anti-VEGFR1 antibody (REGN18) to capture VEGF mini-trap constructs. Binding studies were performed on the following human VEGF reagents: human VEGF₁₆₅. […] Dissociation of bound VEGF₁₆₅ reagent from VEGF mini-trap constructs was monitored for 60 minutes in HBS-ET running buffer. Kinetic association (ka) and dissociation (kd) rate constants were determined by fitting the real-time sensorgrams to a 1:1 binding model using Scrubber 2.0c curve fitting software. Binding dissociation equilibrium constants (KD) and dissociative half-lives (t1/2) were calculated from the kinetic rate constants as: […]

[7] = target: B1; test: cell-based or functional assay; remark: listed apart in the source

T1 sequence (P17948 other isoform, or with tags, fused parts or gaps mutant limits assumed, chain 1 of 2): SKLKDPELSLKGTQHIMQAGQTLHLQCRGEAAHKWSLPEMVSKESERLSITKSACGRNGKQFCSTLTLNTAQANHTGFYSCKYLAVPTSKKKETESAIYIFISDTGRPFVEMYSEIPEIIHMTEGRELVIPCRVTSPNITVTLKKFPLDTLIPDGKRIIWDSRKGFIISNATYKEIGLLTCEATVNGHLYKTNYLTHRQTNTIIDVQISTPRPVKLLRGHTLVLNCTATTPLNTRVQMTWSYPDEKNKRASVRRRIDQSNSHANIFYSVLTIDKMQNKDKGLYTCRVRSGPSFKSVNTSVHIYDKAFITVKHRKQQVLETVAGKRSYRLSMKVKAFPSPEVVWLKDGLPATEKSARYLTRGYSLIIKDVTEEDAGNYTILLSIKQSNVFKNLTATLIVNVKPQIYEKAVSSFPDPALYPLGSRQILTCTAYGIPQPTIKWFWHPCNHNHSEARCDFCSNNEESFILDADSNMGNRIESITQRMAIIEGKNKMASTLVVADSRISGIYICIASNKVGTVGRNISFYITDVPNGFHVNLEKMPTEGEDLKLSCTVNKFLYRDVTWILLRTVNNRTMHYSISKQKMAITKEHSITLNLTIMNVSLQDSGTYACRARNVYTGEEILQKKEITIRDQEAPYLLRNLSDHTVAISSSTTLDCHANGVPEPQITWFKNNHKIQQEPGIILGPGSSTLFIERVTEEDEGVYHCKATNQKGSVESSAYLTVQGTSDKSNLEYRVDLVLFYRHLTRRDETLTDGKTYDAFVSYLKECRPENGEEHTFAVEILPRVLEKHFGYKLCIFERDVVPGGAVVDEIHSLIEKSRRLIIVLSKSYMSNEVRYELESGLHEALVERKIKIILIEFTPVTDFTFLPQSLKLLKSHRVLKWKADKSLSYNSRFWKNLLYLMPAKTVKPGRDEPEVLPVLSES
T1 sequence (P17948 other isoform, or with tags, fused parts or gaps mutant limits assumed, chain 2 of 2): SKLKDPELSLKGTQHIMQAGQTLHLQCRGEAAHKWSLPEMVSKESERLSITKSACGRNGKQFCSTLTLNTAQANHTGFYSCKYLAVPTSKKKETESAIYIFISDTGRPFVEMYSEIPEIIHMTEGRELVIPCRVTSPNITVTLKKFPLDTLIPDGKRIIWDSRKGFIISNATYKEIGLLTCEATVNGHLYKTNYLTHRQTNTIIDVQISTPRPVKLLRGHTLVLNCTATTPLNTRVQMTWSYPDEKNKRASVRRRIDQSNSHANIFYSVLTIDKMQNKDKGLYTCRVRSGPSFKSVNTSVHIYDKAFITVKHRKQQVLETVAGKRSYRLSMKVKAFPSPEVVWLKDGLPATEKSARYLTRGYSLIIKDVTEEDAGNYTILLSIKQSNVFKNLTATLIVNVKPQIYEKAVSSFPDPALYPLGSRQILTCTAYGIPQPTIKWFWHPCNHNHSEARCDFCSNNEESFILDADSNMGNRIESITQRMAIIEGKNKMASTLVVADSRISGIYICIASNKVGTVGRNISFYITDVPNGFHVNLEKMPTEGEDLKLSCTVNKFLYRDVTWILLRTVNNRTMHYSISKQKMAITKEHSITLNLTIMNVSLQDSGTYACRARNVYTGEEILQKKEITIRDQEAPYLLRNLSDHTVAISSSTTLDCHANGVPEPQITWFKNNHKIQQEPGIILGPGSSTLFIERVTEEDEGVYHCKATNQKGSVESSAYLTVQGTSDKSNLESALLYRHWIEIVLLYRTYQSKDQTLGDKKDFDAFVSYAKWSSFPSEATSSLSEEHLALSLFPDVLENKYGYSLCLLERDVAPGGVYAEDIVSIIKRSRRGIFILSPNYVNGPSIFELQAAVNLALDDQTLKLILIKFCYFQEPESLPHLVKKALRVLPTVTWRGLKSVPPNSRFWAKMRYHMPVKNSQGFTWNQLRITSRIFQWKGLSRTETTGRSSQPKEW

Row | EC50 (read off the curve); NFkB-luciferase reporter (RLU), 293/D9/VEGFR1 cells, VEGF121 titrated alone [A] [1] | EC50 of activation of HEK293/D9/Flt-IL18Rα/Flt-IL18Rβ (VEGFR1) luciferase reporter cells [2] | IC50, Inhibition of 20 pM VEGF165, VEGFR1 assay (luciferase) (Human VEGF165 (REGN110) [3]) | IC50, Inhibition of 20 pM VEGF121, VEGFR1 assay (luciferase) [4] | IC50 (read off the curve); NFkB-luciferase reporter (RLU), 293/D9/VEGFR1 cells, VEGF121 constant 40 pM [A] [5] | 2.5 nM hVEGF165 Bound (RU) (Human VEGF165 (REGN110) [6]) | Kd (Human VEGF165 (REGN110) [6]) | koff (Human VEGF165 (REGN110) [6]) | kon (Human VEGF165 (REGN110) [6]) | t½ (Human VEGF165 (REGN110) [6]) | IC50 (read off the curve); NFkB-luciferase reporter (RLU), 293/D9/VEGFR1 cells, VEGF121 constant 40 pM [C] [7] | Binder
1 | ~0.1 nM | ~0.03 nM | – | – | – | – | – | – | – | – | – | B1
2 | – | – | 3.36e-11 M | 2.09e-11 M | ~2e-11 M | 9.37 RU | 0.0019 nM | 1.95e-05 s⁻¹ | 1.01e+07 M⁻¹ s⁻¹ | 9.85 h | – | B2
3 | – | – | – | 1.43e-11 M | – | 6.6 RU | 0.0026 nM | 2.77e-05 s⁻¹ | 1.06e+07 M⁻¹ s⁻¹ | 6.95 h | ~1e-11 M | B3
